The record followed here is patent publication US20120269826A1.

For the test, the target named is CD3/TCR complex on mouse T cells (mouse) (UniProt P22646). Briefly: cell-based or functional assay.
Chain of UniProt P22646 (P22646 22-189, chain 1 of 4): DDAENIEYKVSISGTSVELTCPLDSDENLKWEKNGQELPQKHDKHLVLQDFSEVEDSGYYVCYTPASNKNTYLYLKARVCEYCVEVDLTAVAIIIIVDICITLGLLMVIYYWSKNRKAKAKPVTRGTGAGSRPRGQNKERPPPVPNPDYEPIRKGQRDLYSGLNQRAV
Chain of UniProt P22646 (P11942 23-182, chain 2 of 4, further chain): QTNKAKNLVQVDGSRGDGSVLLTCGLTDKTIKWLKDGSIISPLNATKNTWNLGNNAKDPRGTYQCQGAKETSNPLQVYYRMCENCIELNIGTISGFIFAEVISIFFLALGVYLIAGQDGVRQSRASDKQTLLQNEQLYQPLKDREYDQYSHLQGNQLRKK
Chain of UniProt P22646 (P04235 22-173, chain 3 of 4, further chain): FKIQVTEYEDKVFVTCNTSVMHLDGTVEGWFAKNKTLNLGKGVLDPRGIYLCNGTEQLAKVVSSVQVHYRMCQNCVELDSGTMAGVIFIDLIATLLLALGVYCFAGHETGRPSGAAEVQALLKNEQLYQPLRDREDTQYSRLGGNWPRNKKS
Chain of UniProt P22646 (P24161 22-164, chain 4 of 4, further chain): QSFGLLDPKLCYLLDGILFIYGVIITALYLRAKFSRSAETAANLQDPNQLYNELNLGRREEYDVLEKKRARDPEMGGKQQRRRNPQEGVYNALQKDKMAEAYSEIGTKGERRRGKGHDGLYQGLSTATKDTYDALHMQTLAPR

Substance “anti-CD3 mAb F(ab′)2 (hamster anti-mouse CD3 mAb, clone 145-2C11)” had a CD3/TCR-complex expression 24 hr after dose 4, 5 µg dose, Study A (% of baseline) of 50; a CD3/TCR-complex expression 24 hr after dose 4, 25 µg dose, Study A (% of baseline) of 12; a percentage of CD3/TCR-complex modulation after the fourth dose, 1 µg (4×/72 hr) dose regimen, BALB/c mice of 19.7%; a percentage of CD3/TCR-complex modulation after the fourth dose, 2 µg (4×/72 hr) dose regimen, BALB/c mice of 30.3%.
